Experimental data reported in the supplement of paper PMC10126150.
± gives the standard deviation of the averaged measurements.

System: ATP
Experiment: switch fluorescence ratio, 500 uM ATP over buffer (Cy3 cluster intensity, sum of 5 cycles each) (fold (ratio)); higher = stronger signal-on switching upon ATP binding; sequences stand for … in TCGTCGGCAGCGTCAGATGTGTATAAGAGACAGTTTTTTTTTTTTTTTTTTTTTTTTT…TC
Details: aptamer strand: ATP DNA aptamer (quencher-CACCTGGGGGAGTATTGCGGAGGAAGG + anchor), 100 nM annealed; ATP concentration: 500 uM
Outline: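 Per cluster, summed Cy3 intensity from the target cycles was divided by that from the buffer cycles to give the fluorescence ratio, then averaged per switch-domain sequence. Clusters outside 100-1000 RFU were excluded. The Cy3-labelled switching-strand clusters, on a modified Illumina MiSeq flow-cell, were annealed to 100 nM quencher-labelled ATP aptamer and imaged in selection buffer, then after 15 min with 500 uM ATP at 22 °C, for five cycles with NaOH stripping and re-annealing between them.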
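Also: ATP exposure 15 min at 22 °C before imaging.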

Row | Sequence | switch fluorescence ratio
1 | AGTGGGTGCT | 1.02 ± 0.039
2 | TTGTGTTTCG | 0.967 ± 0.028
3 | GTCTTGGGTG | 1.02 ± 0.019
4 | GGTTAAGAAC | 0.993 ± 0.019
5 | TCAAGTGCTT | 0.9688 ± 0.0071
6 | CGGGGGGGAC | 1.11 ± 0.16
7 | ATATTTATTT | 1.015 ± 0.009
8 | GCGCATATTG | 1.051 ± 0.0021
9 | GAAGAATTAT | 1.011 ± 0.0007
10 | ATGCATACTG | 1.03 ± 0.022
11 | GAATTTGATG | 1 ± 0.042
12 | TTTTGGGGCT | 1.01 ± 0.03
13 | GGTGGGAAGT | 0.987 ± 0.021
14 | GCTGGTTAGT | 1 ± 0.014
15 | CTTTAATGCC | 0.999 ± 0.021
16 | AAAAGTATTA | 1.01 ± 0.025
17 | TGTGCTATGT | 0.995 ± 0.028
18 | CTAAATAGCA | 1.01 ± 0.016
19 | TCGAGTCTTT | 0.998 ± 0.015
20 | AGAGTTAAGT | 0.989 ± 0.032
21 | TCGTATCAAG | 0.969 ± 0.026
22 | ACCGCATAGT | 2.57 ± 0.099
23 | GACTTAGGAA | 1.05 ± 0.072

Row | Sequence | switch fluorescence ratio
24 | GCGTTTTAGC | 0.995 ± 0.041
25 | GCGTTGATGT | 0.981 ± 0.017
26 | TTTATGTACG | 0.985 ± 0.054
27 | GGGTCGAGGG | 0.986 ± 0.027
28 | TAGATTTATT | 0.995 ± 0.028
29 | AACGGGGGAG | 0.979 ± 0.021
30 | TTTGTAGTCA | 1.05 ± 0.083
31 | CGATTGGTGT | 1.02 ± 0.021
32 | TTTATATTCG | 0.989 ± 0.033
33 | GGAAATATTT | 0.98 ± 0.016
34 | GTTGGGGTAA | 0.9927 ± 0.0067
35 | CCAGATATGG | 1.01 ± 0.041
36 | GTTTTCTGTT | 1.0024 ± 0.00021
37 | CGGAAGTTGA | 1.02 ± 0.067
38 | TGTACGGGGG | 0.949 ± 0.021
39 | TCAGTGTGCT | 0.98 ± 0.014
40 | TGATTTAGGA | 1.01 ± 0.036
41 | ACGGAAGGGC | 1.11 ± 0.059
42 | ACGGTGGAGT | 1.02 ± 0.054
43 | GTTTTAGCGC | 1 ± 0.049
44 | GGTAAACAAA | 1.026 ± 0.0079
45 | GCGGAGACTG | 0.962 ± 0.069
46 | TGGATAAGGA | 0.983 ± 0.013

Row | Sequence | switch fluorescence ratio
47 | CGGTATAACT | 1 ± 0.011
48 | ACTTCGTATG | 1.03 ± 0.011
49 | TTTCCATTGT | 0.995 ± 0.048
50 | CTCAGCAGGG | 1.73 ± 0.17
51 | CCAGCTGGCT | 1.026 ± 0.0063
52 | GTTCCGCCTG | 1.094 ± 0.0043
53 | GCGTCAGGGT | 0.973 ± 0.027
54 | TCGGGCCTGT | 1 ± 0.034
55 | TTGAGATGTT | 1.01 ± 0.025
56 | TTTTGAGGTA | 1.05 ± 0.023
57 | AAGCTACGTG | 1.05 ± 0.013
58 | AAAAAGGGAG | 1.01 ± 0.044
59 | ATTTAGGCAT | 0.987 ± 0.042
60 | TTTAGACTAG | 0.987 ± 0.017
61 | CGCGGGGGTT | 1.03 ± 0.035
62 | ATTGTCTATA | 0.981 ± 0.011
63 | GGCCGTAGCG | 0.986 ± 0.025
64 | GGAAGGGGAT | 0.9986 ± 0.0061
65 | ATGTGGCCTG | 0.988 ± 0.056
66 | TGCAGTAGCG | 0.9936 ± 0.0051
67 | TAATACTTTG | 1.04 ± 0.024
68 | ATGGAGGGTG | 1.04 ± 0.031
69 | GTGAGGATGG | 0.978 ± 0.012

Row | Sequence | switch fluorescence ratio
70 | AAGTTTAAAT | 0.999 ± 0.02
71 | CGCGTGGGGC | 1.06 ± 0.015
72 | TTTCCCGTTG | 1.07 ± 0.12
73 | TTGGACCATG | 1.01 ± 0.038
74 | TGTTTTAAAG | 1.01 ± 0.061
75 | CTTGACAGGT | 1.023 ± 0.0058
76 | ACTGTAGGGC | 1.04 ± 0.04
77 | AAGTTGGGCA | 0.969 ± 0.039
78 | TCGTGTAGGG | 0.984 ± 0.014
79 | TTGATGAGGA | 0.978 ± 0.048
80 | AATGCGGTTC | 0.9709 ± 0.0026
81 | TCCAATTTTT | 0.986 ± 0.024
82 | AAAGAAACAT | 1.07 ± 0.08
83 | CTGTGTTGGT | 0.992 ± 0.022
84 | TTAACTGGGA | 0.998 ± 0.026
85 | TTATGTGAGT | 0.972 ± 0.0085
86 | TCCTACGTTT | 1.75 ± 0.86
87 | CATTTGTTAG | 0.9657 ± 0.0071
88 | CGGATAGAGC | 0.9951 ± 0.0085
89 | CGTTTATAGT | 1.02 ± 0.039
90 | CATACAGGGG | 1.44 ± 0.067
91 | TTTTTTATGG | 1.01 ± 0.031
92 | CATGTGGTGG | 0.998 ± 0.039

Row | Sequence | switch fluorescence ratio
93 | AAACGCGACT | 1.31 ± 0.2
94 | AGAAAGGGCC | 0.966 ± 0.055
95 | TGAAAAAGGT | 0.9993 ± 0.0021
96 | GAGCTAGGGT | 0.9905 ± 0.006
97 | TTGGGGGGT | 1.06 ± 0.012
98 | GGACAAAAGA | 0.984 ± 0.011
99 | GCTGTGCGCA | 1.02 ± 0.019
100 | TTATGTCTTC | 0.984 ± 0.026
101 | GGTTTTGTTA | 1.03 ± 0.086
102 | TCTAGATAAA | 1.04 ± 0.052
103 | GGGGGGTCCG | 1.01 ± 0.074
104 | ATGGCTGTTT | 0.972 ± 0.0012
105 | TCTGGGAATT | 1.046 ± 0.0027
106 | CGATTGAGCA | 0.994 ± 0.031
107 | CCCGGCGAT | 1.85 ± 1.2
108 | TCTCGTACAG | 0.982 ± 0.024
109 | TGAAAGTGTT | 0.994 ± 0.012
110 | TCTGGGGCGG | 1.04 ± 0.074
111 | ACTAGTCGGA | 1.03 ± 0.028
112 | TGTTAGATAG | 1 ± 0.025
113 | GAGATCGGTA | 1.006 ± 0.0069
114 | AGGTTTTAGT | 1.013 ± 0.005
115 | TGCAGGTGGC | 1.13 ± 0.035

Row | Sequence | switch fluorescence ratio
116 | TTCGTAGGGC | 1.01 ± 0.055
117 | TGGTTAAACT | 0.98 ± 0.027
118 | GGGTCTTGAT | 0.9675 ± 0.0047
119 | GGGTACGCGA | 1.222 ± 0.0097
120 | ACTTGCACGT | 1.175 ± 0.0094
121 | TTTGTTTAGA | 0.9917 ± 0.0069
122 | ATGGTTGGGA | 0.998 ± 0.024
123 | TTAGAGGCGC | 1.035 ± 0.0095
124 | GATCTGGTAC | 1.06 ± 0.037
125 | GAATTATGCC | 0.977 ± 0.021
126 | GCGACGAGTA | 1.074 ± 0.004
127 | TTGTCGTCTC | 0.986 ± 0.041
128 | AAAGCTCGTG | 1 ± 0.015
129 | GGATCGCGAG | 0.9797 ± 0.0074
130 | TCCCTAAAAG | 0.9896 ± 0.0049
131 | GGGATAGGAG | 1 ± 0.03
132 | ATATCCCTGG | 1.11 ± 0.013
133 | GTATTTGGGC | 0.994 ± 0.012
134 | AGTCTTTTTT | 1 ± 0.0038
135 | GTGATGTCTC | 1.008 ± 0.0091
136 | TTTAGTGTGG | 1.02 ± 0.044
137 | TACCGGTTCG | 1 ± 0.011
138 | TTGTATTGCC | 1.02 ± 0.018

Row | Sequence | switch fluorescence ratio
139 | CGGGATCTGG | 0.977 ± 0.015
140 | AGTTAAGAGC | 1.01 ± 0.038
141 | TGGGATGGGA | 1 ± 0.024
142 | TTCGGGGAGG | 1.02 ± 0.019
143 | TATGAAAGGA | 1.011 ± 0.0047
144 | AGTTGTTGTT | 0.981 ± 0.022
145 | CATGGGAGGT | 0.9711 ± 0.0067
146 | AGGTTGAAAA | 0.963 ± 0.032
147 | TATATACGTT | 1.04 ± 0.026
148 | CTCGGGAGAA | 1.016 ± 0.0039
149 | AGTGTCTGGG | 0.992 ± 0.022
150 | TAGTTTTAGA | 0.98478 ± 9.2e-05
151 | TGAATTGTTT | 0.993 ± 0.043
152 | CGTATAAGTT | 0.937 ± 0.018
153 | GGGTAGTCCG | 0.9937 ± 0.007
154 | TCAATAAAGT | 0.961 ± 0.014
155 | GAGGAGGCGG | 1.03 ± 0.014
156 | TTCTGAGGAT | 0.989 ± 0.042
157 | AGCTTGTCAA | 0.9774 ± 0.0067
